From patent US20160263235A1 (ANGIOCHEM, published 2016) come the findings set out here.

Assay [1] concerns the target T1, NT receptor NTSR1 (high affinity NTSR1 receptor) on HT29 cells (human (HT29 is stated to be a human …, UniProt P30989 1-418)).
T1 construct: whole, on cells; Endogenous receptor on HT29 cells
The assay is described as follows: competitive displacement of [3H]-NT from HT29 cells expressing NTSR1. (Displacement assays read how much labelled ligand stays bound in the presence of the test substance.)

Assay [2] has as its target T1, NT receptor NTSR1 (high affinity NTSR1 …). The assay is described as above. The source holds these as a separate data set.

Square brackets hold non-standard residues; d marks the D form.

T1 sequence (P30989 whole entry): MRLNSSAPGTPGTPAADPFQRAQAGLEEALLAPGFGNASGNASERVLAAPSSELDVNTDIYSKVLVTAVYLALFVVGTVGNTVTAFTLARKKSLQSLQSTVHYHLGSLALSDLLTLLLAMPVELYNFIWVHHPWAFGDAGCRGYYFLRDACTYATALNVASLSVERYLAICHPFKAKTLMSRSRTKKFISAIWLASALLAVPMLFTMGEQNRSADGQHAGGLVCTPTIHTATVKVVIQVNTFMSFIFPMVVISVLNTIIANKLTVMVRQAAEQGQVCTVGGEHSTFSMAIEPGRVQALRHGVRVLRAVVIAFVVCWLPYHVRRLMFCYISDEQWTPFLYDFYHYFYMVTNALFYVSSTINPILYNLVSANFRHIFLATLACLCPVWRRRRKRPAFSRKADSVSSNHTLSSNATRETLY

B1: Ac-Lys-[D-Tyr^11]NT(8-13) (peptide)
peptide: Ac-KRRP[dY]IL-OH
SMILES: CC[C@H](C)[C@H](NC(=O)[C@@H](Cc1ccc(O)cc1)NC(=O)[C@@H]1CCCN1C(=O)[C@H](CCCNC(=N)N)NC(=O)[C@H](CCCNC(=N)N)NC(=O)[C@H](CCCCN)NC(C)=O)C(=O)N[C@@H](CC(C)C)C(=O)O
notes: also called AcLysNT(8-13)D-tyr11; AcLysNT(8-13)(D-Tyr11)
As for B1, the “fold weaker binding than native NT” value in assay [1] is above 1000 fold. The IC50 (usually the concentration that inhibits the measured activity by half) in assay [2] was determined as 5.39 µM.
